The source of these data is patent publication US20250042997A1 (PHYLAXIS BIOSCIENCE, published 2025).

Assay [1] deals with T1, human Siglec-8 (full-length, on transfected CHO or 293 cells, or native on human eosinophils) (human, UniProt Q9NYZ4 17-499). Briefly: flow cytometry on CHO cells transfected with human Siglec-8; labelled anti-human Fc-gamma secondary; Median RL1-H. On the procedure: In additional studies, the parental llama G2 sequence was humanized and multivalent hzSiglec8-G2v14-Fc antibodies were cloned with a reduced effector function xELL human Fe. Binding of bivalent (ex11422; SEQ ID NO: 5 linked to an Fe xELL via linker 2), tetravalent (cx11580; SEQ ID NO: 9 linked to an Fe xELL via linker 2), and hexavalent (cx11579; SEQ ID NO: 10 linked to an Fe xELL via linker 2) hzSiglec8-G2v14-Fc antibodies were assessed by flow cytometry using CHO cells transfected with human Siglec-8. A titration series of the fusion proteins were incubated with the Siglec8-expressing CHO cells (5×10⁴ cells/well) for 30 minutes at 4° C. in FACS Buffer (PBS 1% BSA, 0.1% NaN3 pH 7.4) in 96 well plates. Following one 150 μL wash with FACS buffer, an APC-conjugated anti-human Fcγ specific secondary antibody (Jackson ImmunoResearch) was added, and cells were incubated for 30 minutes at 4° C. Following one additional wash in FACS buffer, bound antibodies were detected via flow cytometry (iQue Intellicyte).
T1 sequence (Q9NYZ4 17-499): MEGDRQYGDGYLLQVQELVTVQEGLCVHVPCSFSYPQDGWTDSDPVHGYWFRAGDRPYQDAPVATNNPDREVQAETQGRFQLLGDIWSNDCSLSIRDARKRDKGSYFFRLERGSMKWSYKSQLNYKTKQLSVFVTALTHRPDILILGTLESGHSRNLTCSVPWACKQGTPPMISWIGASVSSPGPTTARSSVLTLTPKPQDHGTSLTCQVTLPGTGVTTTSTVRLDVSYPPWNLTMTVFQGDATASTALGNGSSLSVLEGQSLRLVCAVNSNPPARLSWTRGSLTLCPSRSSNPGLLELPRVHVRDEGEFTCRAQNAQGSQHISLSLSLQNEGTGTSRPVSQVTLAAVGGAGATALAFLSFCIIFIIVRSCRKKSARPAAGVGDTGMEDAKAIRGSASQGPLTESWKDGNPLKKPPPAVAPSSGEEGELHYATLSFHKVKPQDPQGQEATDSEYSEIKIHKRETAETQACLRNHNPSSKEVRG
The calculated affinity was similar between the bivalent, tetravalent, and hexavalent hzSiglec8-G2v14-Fc antibodies. The observed Bmax was reduced with increasing valency as anticipated, due the fact that the Fc portion of the antibody was detected in this assay and the ratio of Fc regions to anti-Siglec-8 binding domains is inverse to valency.
Background: In flow cytometry, cells or beads pass a laser one at a time.

Assay [2] addresses T1, human Siglec-8 (full-length, on …). In words: cell-based or functional assay.

B1: hexavalent hzSiglec8-G2v14-Fc (xELL) (Fc fusion)
chain: EVQLLESGGGEVQPGGSLRLSCAASGSISIFSMYVVAWYRQAPGKEREWVAFIQRGGTANYAESAKGRFTISRDNAKNTVYLQMSSLRAEDTAVYYCNYINTDNEIGGPWGQGTLVTVKPGGSGGSEVQLLESGGGEVQPGGSLRLSCAASGSISIFSMYVVAWYRQAPGKEREWVAFIQRGGTANYAESAKGRFTISRDNAKNTVYLQMSSLRAEDTAVYYCNYINTDNEIGGPWGQGTLVTVKPGGSGGSEVQLLESGGGEVQPGGSLRLSCAASGSISIFSMYVVAWYRQAPGKEREWVAFIQRGGTANYAESAKGRFTISRDNAKNTVYLQMSSLRAEDTAVYYCNYINTDNEIGGPWGQGTLVTVKPGGGGDKTHTCPPCPAPGGPSVFLFPPKPKDTLMISRTPEVTCVVVDVSHEDPEVKFNWYVDGVEVHNAKTKPREEQYNSTYRVVSVLTVLHQDWLNGKEYKCKVSNKALPAPIEKTISKAKGQPREPQVYTLPPSRDELTKNQVSLTCLVKGFYPSDIAVEWESNGQPENNYKTTPPVLDSDGSFFLYSKLTVDKSRWQQGNVFSCSVMHEALHNHYTQKSLSLSPGK
notes: Homodimer through the Fc; also called cx11579
A word on the EC50 (read off the curve): it is the concentration needed to bring the measured effect to its halfway point. For the molecule B1, in assay [1], the half-maximal effective concentration (EC50 (read off the curve)) was around 20 pM.

B2: tetravalent hzSiglec8-G2v14-Fc (xELL) (Fc fusion)
chain: EVQLLESGGGEVQPGGSLRLSCAASGSISIFSMYVVAWYRQAPGKEREWVAFIQRGGTANYAESAKGRFTISRDNAKNTVYLQMSSLRAEDTAVYYCNYINTDNEIGGPWGQGTLVTVKPGGSGGSEVQLLESGGGEVQPGGSLRLSCAASGSISIFSMYVVAWYRQAPGKEREWVAFIQRGGTANYAESAKGRFTISRDNAKNTVYLQMSSLRAEDTAVYYCNYINTDNEIGGPWGQGTLVTVKPGGGGDKTHTCPPCPAPGGPSVFLFPPKPKDTLMISRTPEVTCVVVDVSHEDPEVKFNWYVDGVEVHNAKTKPREEQYNSTYRVVSVLTVLHQDWLNGKEYKCKVSNKALPAPIEKTISKAKGQPREPQVYTLPPSRDELTKNQVSLTCLVKGFYPSDIAVEWESNGQPENNYKTTPPVLDSDGSFFLYSKLTVDKSRWQQGNVFSCSVMHEALHNHYTQKSLSLSPGK
notes: Homodimer through the Fc; also called cx11580
Regarding B2, in assay [2], the “potency of eosinophil killing in the presence of IL-5, fold improvement over the afucosylated AK002 analog” value is around 30 fold and the “potency of eosinophil killing in the presence of IL-5, fold increase compared to bivalent hzSiglec8-G2v14-Fc” value is 10 fold. Besides, the half-maximal effective concentration (EC50 (read off the curve)) in assay [1] was around 40 pM.
